The record followed here is US9181340B2, “TEM8 antibodies, conjugates thereof, and their use” (The United States of America, as represented by the …, priority 2011, dated 2015).

For one series, the system named is HCT-116 tumors. The following applies: mouse, in vivo.
Series [1] has as its target T1, mouse TEM8 (293/mTEM8 cells) (Mus musculus, UniProt Q9CZ52).
T1 construct: expressed in transfected cells
In words: Flow cytometry binding to 293/mTEM8 cells. Here is the method: 293 cells were obtained from ATCC. 293 cells were cultured in DMEM supplemented with 10% FBS. 293 cells expressing mouse (293-mTEM8) or a flag-tagged human TEM8 (293/Flag-huTEM8) were generated by lipofectamine 2000 mediated stable transfection of 293 cells with a mTEM8/pcDNA3 or a Flag-huTEM8/pcDNA3 expression vector (Yang et al., Biochim Biophys Acta 1813(1):39-49, 2011). Because transfected cells expressed variable levels of TEM8 (see 293/mTEM8 cells in FIG. 8C) they were subsequently enriched for surface expression by florescence activated cell sorting (FACS) using anti-AF344 (293/mTEM8) (Yang et al., Biochim Biophys Acta 1813(1):39-49, 2011) or anti-FLAG antibodies (293/Flag-hTEM8) (M2 clone, Sigma).
(§1) Trypsinized cells were rinsed in cold PBS/0.5% BSA (PBS/BSA) and labeled with anti-TEM8 Fabs (human) or full IgG (human-mouse) primary antibodies in PBS/BSA containing 10% goat serum at 4° C. Cells were rinsed with PBS/BSA and incubated with FITC-conjugated goat anti-human Fab or anti-mouse IgG secondary antibodies (Jackson Immunoresearch, West Grove, Pa.), rinsed again, and analyzed on a FACScalibur flow cytometer (Becton Dickinson, Franklin Lakes, N.J.) using CellQuest™ Software.
(In general: Flow cytometry measures light scatter and fluorescence of single cells or particles in a stream.)

In series [2] the target is T2, purified recombinant hTEM8(ED)-Fc fusion protein (Homo sapiens, UniProt Q9H6X2).
T2 sequence (Q9H6X2 33-321): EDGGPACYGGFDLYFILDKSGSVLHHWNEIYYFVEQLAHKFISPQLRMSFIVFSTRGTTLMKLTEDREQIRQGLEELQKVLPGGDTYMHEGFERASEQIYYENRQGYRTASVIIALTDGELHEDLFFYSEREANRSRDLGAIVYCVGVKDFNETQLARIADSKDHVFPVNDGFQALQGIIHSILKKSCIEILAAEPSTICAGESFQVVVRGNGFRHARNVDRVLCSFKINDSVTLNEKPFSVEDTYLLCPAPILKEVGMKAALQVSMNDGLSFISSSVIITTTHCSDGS
In words: ELISA of Fabs on TEM8(ED)-Fc. (An ELISA detects its analyte on a solid surface through an enzyme-linked reagent.)

For series [3], the target named is T3, human TEM8 (293/Flag-hTEM8 cells) (Homo sapiens, UniProt Q9H6X2).
T3 construct: expressed in transfected cells
In words: Flow cytometry / immunofluorescence binding to 293/Flag-hTEM8 cells. The following applies: immunofluorescence staining and flow cytometry. Here is the method: 293 cells were obtained from ATCC. 293 cells were cultured in DMEM supplemented with 10% FBS. 293 cells expressing mouse (293-mTEM8) or a flag-tagged human TEM8 (293/Flag-huTEM8) were generated by lipofectamine 2000 mediated stable transfection of 293 cells with a mTEM8/pcDNA3 or a Flag-huTEM8/pcDNA3 expression vector (Yang et al., Biochim Biophys Acta 1813(1):39-49, 2011).
as §1

The target of series [4] is TEM8 (CHO-TEM8 cells), binding of Anthrax PA (Homo sapiens, UniProt Q9H6X2).

T3 sequence (Q9H6X2 33-564): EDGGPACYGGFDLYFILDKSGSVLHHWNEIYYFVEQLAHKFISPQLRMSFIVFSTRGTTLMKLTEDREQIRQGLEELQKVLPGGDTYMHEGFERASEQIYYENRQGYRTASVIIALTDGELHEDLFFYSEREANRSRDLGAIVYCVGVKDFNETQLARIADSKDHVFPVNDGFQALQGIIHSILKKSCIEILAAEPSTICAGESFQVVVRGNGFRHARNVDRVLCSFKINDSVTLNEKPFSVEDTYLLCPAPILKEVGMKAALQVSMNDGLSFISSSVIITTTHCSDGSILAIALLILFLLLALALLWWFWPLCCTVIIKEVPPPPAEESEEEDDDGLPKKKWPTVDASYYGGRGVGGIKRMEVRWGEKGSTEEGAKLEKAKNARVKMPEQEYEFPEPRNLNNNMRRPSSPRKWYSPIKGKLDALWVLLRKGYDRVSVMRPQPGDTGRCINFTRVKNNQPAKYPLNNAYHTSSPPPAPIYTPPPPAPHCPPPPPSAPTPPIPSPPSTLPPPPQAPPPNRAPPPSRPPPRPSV
T1 sequence (Q9CZ52 31-562): as the sequence (Q9H6X2 33-564) above, with K40R, R104S, S241A, I297V, A327V, N458S, A468T, T471P, P493A counted along it

With `CCc1c2c(nc3ccc(OC(=O)N4CCC(N5CCCCC5)CC4)cc13)-c1cc3c(c(=O)n1C2)COC(=O)[C@]3(O)CC` [IRT, irinotecan], in the series with HCT-116 tumors, the “body weight in HCT116 tumor-bearing mice” value was “small, albeit non-significant, reduction in body weight”.
On to `O=c1[nH]cc(F)c(=O)[nH]1` [Antibody 5-FU, 5-fluorouracil], for which the “body weight in HCT116 tumor-bearing mice” value in the series on HCT-116 tumors was “small, albeit non-significant, reduction in body weight”.

B1: 1D2 Fab: fully human anti-TEM8 Fab from phage display; VH SEQ ID NO: 5, VL SEQ ID NO: 10; Fab chains SEQ ID NOs: 32, 33 (antibody)
heavy: QVQLKESGPALVKPTQTLTLTCTFSGFSLSTSGMGVSWIRQPPGKALEWLAHINLDDDKYYSTSLKTRLTISKDTSKNQVVLTMTNMDPVDTATYYCARGGYGDMDVWGQGTLVTVSSASTKGPSVFPLAPSSKSTSGGTAALGCLVKDYFPEPVTVSWNSGALTSGVHTFPAVLQSSGLYSLSSVVTVPSSSLGTQTYICNVNHKPSNTKVDKKVEPKSEF
light: DIELTQPPSVSVAPGQTARISCSGDNIRSMFVHWYQQKPGQAPVLVIYADNKRPSGIPERFSGSNSGNTATLTISGTQAEDEADYYCSSYDYNAHLVVFGGGTKLTVLGQPKAAPSVTLFPPSSEELQANKATLVCLISDFYPGAVTVAWKADSSPVKAGVETTTPSKQSNNKYAASSYLSLTPEQWKSHRSYSCQVTHEGSTVEKTVAPTEA
modifications: Antibody sequence
As for B1, the “binding to cells expressing mouse TEM8” value in series [1] was “react”. Besides, the “reactivity with TEM8 protein in ELISA” value in series [2] is reported as “react”. Also, in series [3], the “binding to cells expressing human TEM8” value is listed as “react”.

B2: L3 Fab: fully human anti-TEM8 Fab from phage display; VH SEQ ID NO: 3, VL SEQ ID NO: 8; Fab chains SEQ ID NOs: 28, 29 (antibody)
heavy: QVQLQQSGPGLVKPSQTLSLTCAISGDSVSTNGAAWGWIRQSPGRGLEWLGRIYYRSKWYNDYAVSVKSRITINPDTSKNQFSLQLNSVTPEDTAVYYCARMPGGFLFDLWGQGTLVTVSSASTKGPSVFPLAPSSKSTSGGTAALGCLVKDYFPEPVTVSWNSGALTSGVHTFPAVLQSSGLYSLSSVVTVPSSSLGTQTYICNVNHKPSNTKVDKKVEPKSEF
light: DIELTQPPSVSVAPGQTARISCSGDNIRSYYAHWYQQKPGQAPVLVIYGDSKRPSGIPERFSGSNSGNTATLTISGTQAEDEADYYCSSYASHDYVFGGGTKLTVLGQPKAAPSVTLFPPSSEELQANKATLVCLISDFYPGAVTVAWKADSSPVKAGVETTTPSKQSNNKYAASSYLSLTPEQWKSHRSYSCQVTHEGSTVEKTVAPTEA
modifications: Antibody sequence
Turning to B2, the “binding to cells expressing mouse TEM8” value in series [1] is “react”. Besides, in series [4], the “blocking of PA-FITC binding to CHO-TEM8 cells” value (from here on “blocking of PA-FITC binding”) is on record as “neutralize binding of PA to its cell surface receptor, TEM8”. Besides, in series [2], the “reactivity with TEM8 protein in ELISA” value is “react”. Further, the “binding to cells expressing human TEM8” value in series [3] is “react”.

B3: L1 Fab: fully human anti-TEM8 Fab from phage display; VH SEQ ID NO: 2, VL SEQ ID NO: 7; Fab chains SEQ ID NOs: 26, 27 (antibody)
heavy: QVQLVESGGGLVQPGGSLRLSCAASGFTFNSYAMSWVRQAPGKGLEWVSLISSGSSTYYADSVKGRFTISRDNSKNTLYLQMNSLRAEDTAVYYCARAGFKFDNWGQGTLVTVSSASTKGPSVFPLAPSSKSTSGGTAALGCLVKDYFPEPVTVSWNSGALTSGVHTFPAVLQSSGLYSLSSVVTVPSSSLGTQTYICNVNHKPSNTKVDKKVEPKSEF
light: DIELTQPPSVSVAPGQTARISCSGDSIPNYSVSWYQQKPGQAPVLVIYADSNRPSGIPERFSGSNSGNTATLTISGTQAEDEADYYCQSYDNTSPDLVFGGGTKLTVLGQPKAAPSVTLFPPSSEELQANKATLVCLISDFYPGAVTVAWKADSSPVKAGVETTTPSKQSNNKYAASSYLSLTPEQWKSHRSYSCQVTHEGSTVEKTVAPTEA
modifications: Antibody sequence
Take B3: the “binding to cells expressing mouse TEM8” value in series [1] is on record as “react”. Also, the “blocking of PA-FITC binding” value in series [4] is “neutralize binding of PA to its cell surface receptor, TEM8”. Also, the “reactivity with TEM8 protein in ELISA” value in series [2] is given as “react”. Besides, in series [3], the “binding to cells expressing human TEM8” value is reported as “react”.

B4: L5 Fab: fully human anti-TEM8 Fab from phage display; VH SEQ ID NO: 4, VL SEQ ID NO: 9; Fab chains SEQ ID NOs: 30, 31 (antibody)
heavy: QVQLVESGGGLVQPGGSLRLSCAASGFTFNSYGLSWVRQAPGKGLEWVSNISSNGSYTYYADSVKGRFTISRDNSKNTLYLQMNSLRAEDTAVYYCARAGYGLFDVWGQGTLVTVSSAKTTAPSVYPLAPVCGDTTGSSVTLGCLVKGYFPEPVTLTWNSGSLSSGVHTFPAVLQSDLYTLSSSVTVTSSTWPSQSITCNVAHPASSTKVDKKIEPRGPTIKPCPPCKCPAPNLLGGPSVFIFPPKIKDVLMISLSPIVTCVVVDVSEDDPDVQISWFVNNVEVHTAQTQTHREDYNSTLRVVSALPIQHQDWMSGKEFKCKVNNKDLPAPIERTISKPKGSVRAPQVYVLPPPEEEMTKKQVTLTCMVTDFMPEDIYVEWTNNGKTELNYKNTEPVLDSDGSYFMYSKLRVEKKNWVERNSYSCSVVHEGLHNHHTTKSFSRTPGK
light: DIELTQPPSVSVAPGQTARISCSGDKLREYYVHWYQQKPGQAPVLVIYGDNKRPSGIPERFSGSNSGNTATLTISGTQAEDEADYYCSSWAGSRSGTVFGGGTKLTVLGQPKSTPTLTVFPPSSEELKENKATLVCLISNFSPSGVTVAWKANGTPITQGVDTSNPTKEGNKFMASSFLHLTSDQWRSHNSFTCQVTHEGDTVEKSLSPAECL
modifications: Antibody sequence
For B4, in series [1], the “binding to cells expressing mouse TEM8” value is reported as “react”. Moreover, in series [4], the “blocking of PA-FITC binding” value is recorded as “neutralize binding of PA to its cell surface receptor, TEM8”. Also, the “reactivity with TEM8 protein in ELISA” value in series [2] is “react”. In series [3], the “binding to cells expressing human TEM8” value is recorded as “react”.

B5: L2 Fab: fully human anti-TEM8 Fab from phage display; VH SEQ ID NO: 1, VL SEQ ID NO: 6; Fab chains SEQ ID NOs: 24, 25 (antibody)
heavy: QVQLKESGPALVKPTQTLTLTCTFSGFSLSTSGGGVSWIRQPPGKALEWLAHIYSNDDKSYSTSLKTRLTISKDTSKNQVVLTMTNMDPVDTATYYCARGGYFLDYWGQGTLVTVSSAKTTAPSVYPLAPVCGDTTGSSVTLGCLVKGYFPEPVTLTWNSGSLSSGVHTFPAVLQSDLYTLSSSVTVTSSTWPSQSITCNVAHPASSTKVDKKIEPRGPTIKPCPPCKCPAPNLLGGPSVFIFPPKIKDVLMISLSPIVTCVVVDVSEDDPDVQISWFVNNVEVHTAQTQTHREDYNSTLRVVSALPIQHQDWMSGKEFKCKVNNKDLPAPIERTISKPKGSVRAPQVYVLPPPEEEMTKKQVTLTCMVTDFMPEDIYVEWTNNGKTELNYKNTEPVLDSDGSYFMYSKLRVEKKNWVERNSYSCSVVHEGLHNHHTTKSFSRTPGK
light: DIELTQPPSVSVAPGQTARISCSGDNIGGIYVHWYQQKPGQAPVLVIYADSKRPSGIPERFSGSNSGNTATLTISGTQAEDEADYYCQSYDITSLVFGGGTKLTVLGQPKSTPTLTVFPPSSEELKENKATLVCLISNFSPSGVTVAWKANGTPITQGVDTSNPTKEGNKFMASSFLHLTSDQWRSHNSFTCQVTHEGDTVEKSLSPAECL
modifications: Antibody sequence
As for B5, the “binding to cells expressing mouse TEM8” value in series [1] is listed as “react”. Moreover, the “blocking of PA-FITC binding” value in series [4] was “neutralize binding of PA to its cell surface receptor, TEM8”. In addition, the “reactivity with TEM8 protein in ELISA” value in series [2] was “react”. Also, in series [3], the “binding to cells expressing human TEM8” value was “react”.
